Measurements published in patent publication US20020006903A1.

How the values were obtained:
[1] = biological target: T cell receptor of 2C cytotoxic T lymphocytes; assay: cell-based or functional assay
[2] = biological target: T cell receptor of 2C cytotoxic T lymphocytes; assay: flow cytometry on 2C T cells, varying concentrations of complex
[3] = biological target: T cell receptor of 2C cytotoxic T lymphocytes; assay: flow cytometry on 2C T cells, actively loaded complex, half maximal staining
[4] = biological target: T cell receptor of 2C cytotoxic T lymphocytes; assay: flow cytometry on 2C T cells, actively loaded complex
[5] = biological target: T cell receptor of 2C cytotoxic T lymphocytes; assay: flow cytometry on 2C T cells, actively loaded complex at 0.1 nM
[6] = biological target: T cell receptor of 2C cytotoxic T lymphocytes; assay: flow cytometry on 2C T cells, passively loaded complex
[7] = biological target: T cell receptor of 2C cytotoxic T lymphocytes; assay: flow cytometry on 2C T cells, actively against passively loaded complex
[8] = biological target: T cell receptor of 2C cytotoxic T lymphocytes; assay: flow cytometry on 2C T cells, passively loaded complex, half maximal staining

Sequence of QL9 peptide-loaded H-2 L^d/Ig complex (P01897 25-309, one chain of several): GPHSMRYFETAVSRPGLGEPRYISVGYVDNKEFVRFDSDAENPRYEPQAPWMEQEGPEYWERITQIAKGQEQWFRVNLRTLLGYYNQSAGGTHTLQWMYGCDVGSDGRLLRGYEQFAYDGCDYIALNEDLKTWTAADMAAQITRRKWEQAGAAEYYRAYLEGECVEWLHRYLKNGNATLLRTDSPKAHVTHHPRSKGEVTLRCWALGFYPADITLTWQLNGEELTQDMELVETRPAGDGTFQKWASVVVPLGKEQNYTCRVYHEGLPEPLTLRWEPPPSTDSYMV
Sequence of SIY peptide-loaded H-2 K^b/Ig complex (P01901 22-305, one chain of several): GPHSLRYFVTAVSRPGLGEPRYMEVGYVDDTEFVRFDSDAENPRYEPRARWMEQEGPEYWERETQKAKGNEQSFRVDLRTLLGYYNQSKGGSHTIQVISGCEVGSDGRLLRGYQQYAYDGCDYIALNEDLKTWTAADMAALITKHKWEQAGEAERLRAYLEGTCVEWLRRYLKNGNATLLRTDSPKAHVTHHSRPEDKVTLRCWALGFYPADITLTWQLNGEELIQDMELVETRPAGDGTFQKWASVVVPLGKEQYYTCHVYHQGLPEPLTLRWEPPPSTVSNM

Row | Substance | half maximal inhibition of target cell lysis by 2C CTL [1] | target cell lysis by 2C CTL (percent specific lysis, chromium release) [1] | EC50 [2] | EC50 [3] | 2C CTL mediated lysis of target cells (specific lysis) [1] | concentration of maximal inhibition of proliferation of 2C CTL stimulated by allogeneic splenic cells [1] | half maximal inhibition of proliferation of 2C CTL [1] | stimulation index of 2C CTL proliferation ([3H]thymidine) [1] | lowest concentration at which staining was seen [4] | mean channel fluorescence (MCF) at 0.1 nM [5] | concentration required for staining [6] | fold more effective in staining than the “passively” loaded complex [7] | EC50 [8]
1 | QL9 peptide-loaded H-2 L^d/Ig complex (from UniProt P01897 25-309) (peptide-MHC) | 10 nM | 2% | 1 nM |  |  |  |  |  |  |  |  |  | 
2 | SIY peptide-loaded H-2 K^b/Ig complex (from UniProt P01901 22-305) (peptide-MHC) |  |  | 1 nM | 1 nM | 35% | 20 nM | 1 nM | 10 | 0.1 nM | 53 | 10 nM | 10 to 100 fold | 10 nM
